# Laboratory results published in patent publication US20200325212A1 (CITY OF HOPE, published 2020).
# T1: CTLA-4-Fc (purchased from R&D systems) (human, UniProt P16410 37-162)
# T1 construct: Bought reagent; also called human CTLA4; not shown: Fc part and linker of the commercial product are not described
# T1 sequence (looked up): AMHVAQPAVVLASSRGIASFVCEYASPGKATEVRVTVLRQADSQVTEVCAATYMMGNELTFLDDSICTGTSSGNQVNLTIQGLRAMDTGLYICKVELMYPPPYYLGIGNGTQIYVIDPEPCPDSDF
# Experiments:
# [1] = target: T2, CTLA4-Fc MMP9 (MMP9-cleavable CTLA4-Fc mask; CTLA4-Fc_WT) (human); experiment: SPR, CTLA-4-MMP9-Fc coupled to the sensor chip and titrated with m-Lcn2-Fc; no dissociation observed
# T2 construct: It was expressed in insect cells; also called CTLA-4-MMP9-Fc; CTLA4-MMP9-Fc
# T2 sequence (chain, as listed by the source limits assumed): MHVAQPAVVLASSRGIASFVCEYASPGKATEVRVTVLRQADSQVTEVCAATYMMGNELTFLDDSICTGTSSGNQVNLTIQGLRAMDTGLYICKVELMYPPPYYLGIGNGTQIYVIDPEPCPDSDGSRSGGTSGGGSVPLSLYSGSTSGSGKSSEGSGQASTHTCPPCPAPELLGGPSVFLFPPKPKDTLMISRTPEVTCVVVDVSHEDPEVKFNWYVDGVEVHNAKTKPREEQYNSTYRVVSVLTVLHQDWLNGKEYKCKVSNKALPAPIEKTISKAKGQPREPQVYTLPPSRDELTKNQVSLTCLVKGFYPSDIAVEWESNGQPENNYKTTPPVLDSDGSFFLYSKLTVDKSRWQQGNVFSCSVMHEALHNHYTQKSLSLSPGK
# Description: To verify that the m-Lcn2-Fc and CTLA-4-Fc form a 1:1 complex, we used analytical size exclusion chromatography (SEC) (FIG. 3 panel A). A definitive shift to earlier elution volumes was observed, consistent with a molecular mass of 200 kD, as expected. To verify an increase in the apparent affinity due to the energy additivity of bivalent-bivalent interaction, the mask, CTLA-4-MMP9-Fc, was coupled to a CMS sensor chip and titrated with the bivalent m-Lcn2-Fc. A substantial increase in affinity was observed. In fact, no dissociation was observed and thus no calculation could be completed for an apparent dissociation constant (FIG. 3 panel B). […] In an attempt to establish the off-rate, a competition assay was carried out. Specifically, the 1:1 m-Lcn2-Fc|CTLA-4-MMP9-Fc complex was isolated and incubated with 10 fold excess of Alexafluor-labeled CTLA-4-MMP9-Fc. The exchange by size exclusion chromatography was followed by monitoring at […]. After two weeks, less than 5% exchange was observed.
# Surface Plasmon Resonance (SPR). SPR experiments were performed on a GE Biacore T100 instrument at 25° C. Ligands were amine coupled to CMS chips at 300 Rmax. Blank lanes were used as baseline control. Analyte titrations were prepared as serial dilutions in HBS-EP⁺ running buffer (10 mM Hepes pH 7.4, 150 mM NaCl, 3 mM EDTA, 0.05% v/v P20). […]
# [2] = target: murine CTLA4 on murine T-cells (C57BL/6 splenocytes) (mouse, UniProt P09793 36-223); experiment: cell-based or functional assay
# [3] = target: T1, CTLA-4-Fc (purchased from R&D systems); experiment: calculated from the koff of the monovalent m-Lcn2 : CTLA-4 interaction
# [4] = target: T3, CTLA4-Fc variant E31A R33A (human); experiment: SPR (Biacore T100), mLCN2 on CTLA4-Fc variant
# T3 construct: Whole fusion (CTLA4 extracellular domain, MMP9 linker, IgG1 Fc) with E31A and R33A; also called E31A and R33A CTLA-4
# T3 sequence (chain, as listed by the source E31A R33A E31A R33A limits assumed): as the sequence (chain, as listed by the source limits assumed) above, with E31A, R33A counted along it
# Procedure: (§1) Surface Plasmon Resonance (SPR). SPR experiments were performed on a GE Biacore T100 instrument at 25° C. Ligands were amine coupled to CMS chips at 300 Rmax. Blank lanes were used as baseline control. Analyte titrations were prepared as serial dilutions in HBS-EP⁺ running buffer (10 mM Hepes pH 7.4, 150 mM NaCl, 3 mM EDTA, 0.05% v/v P20). Increasing concentrations of analytes were flowed over blank and ligand lanes at 50 μL/min. Regeneration buffer (1 M NaCl, 10 mM glycine pH 2.6) was flowed at 90 μL/min for 10 s. Data analyses were performed using Biacore T100 Evaluation Software, version 1.1.1 (GE Healthcare). Response reported as the difference between blank and peptide lanes.
# (§2) TABLE 3 Kinetics of CTLA4-Fc mask variants, as measured by SPR. Binding kinetics of mLCN2 for each CTLA4-Fc variant was measured by SPR. Half-life time was calculated from equation: t_{1/2} = ln (2)/kd.
# CTLA4-Fc variant Y52F [5] = target: CTLA4-Fc variant Y52F (human); experiment: SPR (Biacore T100), mLCN2 on CTLA4-Fc variant
# CTLA4-Fc variant Y52F (human), sequence (chain, as listed by the source Y52F Y52F limits assumed): as the sequence (chain, as listed by the source limits assumed) above, with Y52F counted along it
# Procedure: as §1, §2
# CTLA4-Fc variant T51H [6] = target: T4, CTLA4-Fc variant T51H (human); experiment: SPR (Biacore T100), mLCN2 on CTLA4-Fc variant
# T4 construct: Whole fusion (CTLA4 extracellular domain, MMP9 linker, IgG1 Fc) with T51H; also called T51H CTLA-4
# T4 sequence (chain, as listed by the source T51H T51H limits assumed): as the sequence (chain, as listed by the source limits assumed) above, with T51H counted along it
# Procedure: as §1, §2
# [7] = target: T5, CTLA4-Fc variant E31S R33E T51H (human); experiment: SPR (Biacore T100), mLCN2 on CTLA4-Fc variant
# T5 construct: Whole fusion (CTLA4 extracellular domain, MMP9 linker, IgG1 Fc) with E31S, R33E and T51H; also called E31S, R33E, T51H CTLA-4
# T5 sequence (chain, as listed by the source E31S R33E T51H E31S R33E T51H limits assumed): as the sequence (chain, as listed by the source limits assumed) above, with E31S, R33E, T51H counted along it
# Procedure: as §1, §2
# [8] = target: T2, CTLA4-Fc MMP9 (MMP9-cleavable CTLA4-Fc …); experiment: SPR (Biacore T100), mLCN2 on CTLA4-Fc variant
# Procedure: as §1, §2
# [9] = target: T1, CTLA-4-Fc (purchased from R&D systems); experiment: SPR presumed; method not given; monovalent m-Lcn2 to CTLA-4
# [10] = target: T3, CTLA4-Fc variant E31A R33A; experiment: calculated from SPR kd, t1/2 = ln(2)/kd
# Procedure: as §1, §2
# CTLA4-Fc variant Y52F [11] = target: CTLA4-Fc variant Y52F (human); experiment: calculated from SPR kd, t1/2 = ln(2)/kd
# Procedure: as §1, §2
# CTLA4-Fc variant T51H [12] = target: T4, CTLA4-Fc variant T51H; experiment: calculated from SPR kd, t1/2 = ln(2)/kd
# Procedure: as §1, §2
# [13] = target: T5, CTLA4-Fc variant E31S R33E T51H; experiment: calculated from SPR kd, t1/2 = ln(2)/kd
# Procedure: as §1, §2
# [14] = target: T2, CTLA4-Fc MMP9 (MMP9-cleavable CTLA4-Fc …); experiment: calculated from SPR kd, t1/2 = ln(2)/kd
# Procedure: as §1, §2
binder,measurement,setting,value
"mLCN2-Fc (bivalent m-Lcn2 fused to human IgG1 Fc) (Fc fusion, m-Lcn2 cDNA was subcloned N-terminal to a linker-Fc domain and expressed in insect cells; also called bivalent m-Lcn2-Fc; unmasked m-Lcn2-Fc; not shown: linker between m-Lcn2 and Fc; human IgG1 Fc fragment) QDSTSDLIPAPPLSKVPLQQNFQDNQFHGKWYVVGLAGNRILRDDQHPMNMYATIYELKEDKSYNVTSVISSHKKCEYTIATFVPGSQPGEFTLGNIKSYGDKTSYLVRVVSTDYNQYAVVFFKLAEDNAEFFAITIYGRTKELASELKENFIRFSKSLGLPENHIVFPVPIDQCIDG",Kd,[1],≤ 0.2 nM
same,induction of IFN-γ production (Elispot),[2],10 fold
"modified lipocalin2 (mLcn2), monovalent (designed binder, Re-engineered human lipocalin 2 used as a CTLA-4 antagonist; also called monovalent mLCN2; monomeric mLCN2) QDSTSDLIPAPPLSKVPLQQNFQDNQFHGKWYVVGLAGNRILRDDQHPMNMYATIYELKEDKSYNVTSVISSHKKCEYTIATFVPGSQPGEFTLGNIKSYGDKTSYLVRVVSTDYNQYAVVFFKLAEDNAEFFAITIYGRTKELASELKENFIRFSKSLGLPENHIVFPVPIDQCIDG","t1/2 (dissociation half-life, 0.693/KOFF)",[3],22 min
same,Kd,[4],100 nM
same,koff,[4],0.0011 s⁻¹
same,kon,[4],11000 M⁻¹ s⁻¹
same,Kd,CTLA4-Fc variant Y52F [5],6.14 nM
same,koff,CTLA4-Fc variant Y52F [5],0.000215 s⁻¹
same,kon,CTLA4-Fc variant Y52F [5],35100 M⁻¹ s⁻¹
same,Kd,CTLA4-Fc variant T51H [6],9.07 nM
same,koff,CTLA4-Fc variant T51H [6],0.00022 s⁻¹
same,kon,CTLA4-Fc variant T51H [6],24200 M⁻¹ s⁻¹
same,Kd,[7],5600 nM
same,koff,[7],0.025 s⁻¹
same,kon,[7],4430 M⁻¹ s⁻¹
same,Kd,[8],5.52 nM
same,koff,[8],0.000201 s⁻¹
same,kon,[8],36400 M⁻¹ s⁻¹
same,koff,[9],0.00051 s⁻¹
same,Calculated t1/2,[10],11.6 min
same,Calculated t1/2,CTLA4-Fc variant Y52F [11],53.7 min
same,Calculated t1/2,CTLA4-Fc variant T51H [12],52.5 min
same,Calculated t1/2,[13],0.467 min
same,Calculated t1/2,[14],57.8 min
